Measurements as given in the supplement of paper PMC9112550, “Optimization of the antimicrobial peptide Bac7 by deep mutational scanning” (BMC Biology, 2022).

System: Escherichia coli TOP10
Test: shrunken log2 fold change of peptide-encoding DNA abundance (4.5 h post-induction vs induction); higher = less antimicrobial activity (less host growth inhibition)
Conditions: time post-induction: 4.5 h; library: site-saturation at positions 5, 18, 19, 20
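Also: peptides expressed intracellularly from a pBAD plasmid library in pooled LB shake-flask culture, induced with 0.3% L-arabinose, DNA abundance read by NGS, three biological replicates, DESeq2 with apeglm shrinkage.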

Row | Sequence | shrunken log2 fold change
1 | RRIRGRPPRLPRPRPRPSNSPRP | -0.203
2 | RRIRGRPPRLPRPRPRPSRTPRP | 0.536
3 | RRIRGRPPRLPRPRPRPSSFPRP | 0.406
4 | RRIRGRPPRLPRPRPRPSSLPRP | -0.252
5 | RRIRGRPPRLPRPRPRPSSTPRP | 0.446
6 | RRIRGRPPRLPRPRPRPSTCPRP | 0.18
7 | RRIRGRPPRLPRPRPRPSTEPRP | 1.14
8 | RRIRGRPPRLPRPRPRPSTQPRP | 0.82
9 | RRIRGRPPRLPRPRPRPSVFPRP | 0.465
10 | RRIRGRPPRLPRPRPRPSWDPRP | 0.496
11 | RRIRGRPPRLPRPRPRPSYIPRP | -0.458
12 | RRIRGRPPRLPRPRPRPSYKPRP | -0.197
13 | RRIRGRPPRLPRPRPRPTAAPRP | 1.97
14 | RRIRGRPPRLPRPRPRPTAGPRP | 1.15
15 | RRIRGRPPRLPRPRPRPTAHPRP | 1.12
16 | RRIRGRPPRLPRPRPRPTCDPRP | 0.432
17 | RRIRGRPPRLPRPRPRPTCGPRP | 0.915
18 | RRIRGRPPRLPRPRPRPTDTPRP | 0.656
19 | RRIRGRPPRLPRPRPRPTEHPRP | 0.569
20 | RRIRGRPPRLPRPRPRPTEKPRP | 0.455
21 | RRIRGRPPRLPRPRPRPTFFPRP | 0.412
22 | RRIRGRPPRLPRPRPRPTHDPRP | 1.72

Row | Sequence | shrunken log2 fold change
23 | RRIRGRPPRLPRPRPRPTHRPRP | 0.454
24 | RRIRGRPPRLPRPRPRPTKFPRP | 0.458
25 | RRIRGRPPRLPRPRPRPTLAPRP | 1.27
26 | RRIRGRPPRLPRPRPRPTLPPRP | 0.574
27 | RRIRGRPPRLPRPRPRPTLVPRP | 1.87
28 | RRIRGRPPRLPRPRPRPTPEPRP | 0.917
29 | RRIRGRPPRLPRPRPRPTQPPRP | 1.12
30 | RRIRGRPPRLPRPRPRPTRLPRP | 0.939
31 | RRIRGRPPRLPRPRPRPTSEPRP | 0.339
32 | RRIRGRPPRLPRPRPRPTTAPRP | 1.31
33 | RRIRGRPPRLPRPRPRPTVTPRP | 1.34
34 | RRIRGRPPRLPRPRPRPVASPRP | 0.623
35 | RRIRGRPPRLPRPRPRPVCNPRP | 0.636
36 | RRIRGRPPRLPRPRPRPVCVPRP | 0.891
37 | RRIRGRPPRLPRPRPRPVECPRP | 0.289
38 | RRIRGRPPRLPRPRPRPVGMPRP | 0.907
39 | RRIRGRPPRLPRPRPRPVGSPRP | 0.749
40 | RRIRGRPPRLPRPRPRPVHCPRP | 0.0385
41 | RRIRGRPPRLPRPRPRPVICPRP | 0.252
42 | RRIRGRPPRLPRPRPRPVIGPRP | 0.388
43 | RRIRGRPPRLPRPRPRPVIMPRP | 0.258
44 | RRIRGRPPRLPRPRPRPVKEPRP | 0.604

Row | Sequence | shrunken log2 fold change
45 | RRIRGRPPRLPRPRPRPVMRPRP | 0.749
46 | RRIRGRPPRLPRPRPRPVNLPRP | -0.152
47 | RRIRGRPPRLPRPRPRPVPVPRP | 0.629
48 | RRIRGRPPRLPRPRPRPVQEPRP | 0.873
49 | RRIRGRPPRLPRPRPRPVQMPRP | 0.844
50 | RRIRGRPPRLPRPRPRPVRCPRP | 0.814
51 | RRIRGRPPRLPRPRPRPVREPRP | 1.11
52 | RRIRGRPPRLPRPRPRPVSHPRP | 0.389
53 | RRIRGRPPRLPRPRPRPVSIPRP | 0.00516
54 | RRIRGRPPRLPRPRPRPVVTPRP | -0.216
55 | RRIRGRPPRLPRPRPRPVVVPRP | 0.985
56 | RRIRGRPPRLPRPRPRPVVWPRP | 1.26
57 | RRIRGRPPRLPRPRPRPVWDPRP | 0.593
58 | RRIRGRPPRLPRPRPRPVWEPRP | 0.761
59 | RRIRGRPPRLPRPRPRPVWVPRP | 0.509
60 | RRIRGRPPRLPRPRPRPWAAPRP | 0.539
61 | RRIRGRPPRLPRPRPRPWCYPRP | 0.0576
62 | RRIRGRPPRLPRPRPRPWDFPRP | 0.328
63 | RRIRGRPPRLPRPRPRPWFGPRP | -0.05
64 | RRIRGRPPRLPRPRPRPWFNPRP | -0.18
65 | RRIRGRPPRLPRPRPRPWFPPRP | -0.132
66 | RRIRGRPPRLPRPRPRPWFVPRP | -0.314

Row | Sequence | shrunken log2 fold change
67 | RRIRGRPPRLPRPRPRPWGGPRP | 0.808
68 | RRIRGRPPRLPRPRPRPWGSPRP | 0.268
69 | RRIRGRPPRLPRPRPRPWHYPRP | 0.0232
70 | RRIRGRPPRLPRPRPRPWLFPRP | 0.458
71 | RRIRGRPPRLPRPRPRPWLIPRP | -0.192
72 | RRIRGRPPRLPRPRPRPWLMPRP | 0.428
73 | RRIRGRPPRLPRPRPRPWMPPRP | 0.105
74 | RRIRGRPPRLPRPRPRPWPDPRP | 0.194
75 | RRIRGRPPRLPRPRPRPWRLPRP | -0.0196
76 | RRIRGRPPRLPRPRPRPWSAPRP | 0.232
77 | RRIRGRPPRLPRPRPRPWSGPRP | 0.0316
78 | RRIRGRPPRLPRPRPRPWWAPRP | 0.193
79 | RRIRGRPPRLPRPRPRPWWCPRP | 0.127
80 | RRIRGRPPRLPRPRPRPWWDPRP | -0.145
81 | RRIRGRPPRLPRPRPRPWWGPRP | -0.0457
82 | RRIRGRPPRLPRPRPRPWYRPRP | -0.19
83 | RRIRGRPPRLPRPRPRPWYSPRP | -0.471
84 | RRIRGRPPRLPRPRPRPYAVPRP | 2.53
85 | RRIRGRPPRLPRPRPRPYCKPRP | 0.0688
86 | RRIRGRPPRLPRPRPRPYCLPRP | -0.305
87 | RRIRGRPPRLPRPRPRPYCNPRP | -0.411
88 | RRIRGRPPRLPRPRPRPYDQPRP | 0.0878

Row | Sequence | shrunken log2 fold change
89 | RRIRGRPPRLPRPRPRPYDVPRP | -0.00115
90 | RRIRGRPPRLPRPRPRPYEIPRP | -0.132
91 | RRIRGRPPRLPRPRPRPYFLPRP | -0.345
92 | RRIRGRPPRLPRPRPRPYFMPRP | -0.389
93 | RRIRGRPPRLPRPRPRPYHMPRP | -0.345
94 | RRIRGRPPRLPRPRPRPYIAPRP | -0.391
95 | RRIRGRPPRLPRPRPRPYITPRP | -0.302
96 | RRIRGRPPRLPRPRPRPYLEPRP | 0.296
97 | RRIRGRPPRLPRPRPRPYMCPRP | 0.0864
98 | RRIRGRPPRLPRPRPRPYPAPRP | 0.497
99 | RRIRGRPPRLPRPRPRPYPVPRP | 0.0121
100 | RRIRGRPPRLPRPRPRPYRWPRP | 0.191
101 | RRIRGRPPRLPRPRPRPYSHPRP | -0.129
102 | RRIRGRPPRLPRPRPRPYTHPRP | -0.426
103 | RRIRGRPPRLPRPRPRPYVHPRP | -0.142
104 | RRIRGRPPRLPRPRPRPYVVPRP | -0.0656
105 | RRIRGRPPRLPRPRPRPYWHPRP | -0.627
106 | RRIRGRPPRLPRPRPRPYYGPRP | -0.289
107 | RRIRGRPPRLPRPRPRPYYSPRP | -0.207
108 | RRIRHRPPRLPRPRPRPAASPRP | 0.144
109 | RRIRHRPPRLPRPRPRPACLPRP | -0.221
